Results taken from paper PMC4513852.
Where two headings read alike, the source gives them in different places.

How the values were obtained:
[1] = target: Hin F105I (Salmonella enterica) (UniProt P03013); test: native gel or EMSA
[2] = target: Hin F106W (Salmonella enterica) (UniProt P03013); test: native gel or EMSA
[3] = target: Hin F105L (Salmonella enterica) (UniProt P03013); test: native gel or EMSA
[4] = target: Hin M109K (Salmonella enterica) (UniProt P03013); test: native gel or EMSA
[5] = target: Hin F106E (Salmonella enterica) (UniProt P03013); test: native gel or EMSA
[6] = target: Hin F105Q (Salmonella enterica) (UniProt P03013); test: native gel or EMSA
[7] = target: Hin M109H (Salmonella enterica) (UniProt P03013); test: native gel or EMSA
[8] = target: Hin M109H (Salmonella enterica) (UniProt P03013); test: native gel or EMSA; remark: listed apart in the source
[9] = target: Hin F106G (Salmonella enterica) (UniProt P03013); test: native gel or EMSA
[10] = target: Hin F106K (Salmonella enterica) (UniProt P03013); test: native gel or EMSA
[11] = target: Hin M109N (Salmonella enterica) (UniProt P03013); test: native gel or EMSA
[12] = target: Hin F105V (Salmonella enterica) (UniProt P03013); test: native gel or EMSA
[13] = target: Hin F106S (Salmonella enterica) (UniProt P03013); test: native gel or EMSA
[14] = target: Hin F106C (Salmonella enterica) (UniProt P03013); test: native gel or EMSA
[15] = target: Hin F106Q (Salmonella enterica) (UniProt P03013); test: native gel or EMSA
[16] = target: Hin M109Y (Salmonella enterica) (UniProt P03013); test: native gel or EMSA
[17] = target: Hin F106Y (Salmonella enterica) (UniProt P03013)
[18] = target: Hin F106Y (Salmonella enterica) (UniProt P03013); test: native gel or EMSA
[19] = target: Hin F105W (Salmonella enterica) (UniProt P03013); test: native gel or EMSA
[20] = target: Hin F106P (Salmonella enterica) (UniProt P03013); test: native gel or EMSA
[21] = target: Hin F106M (Salmonella enterica) (UniProt P03013); test: native gel or EMSA
[22] = target: Hin M109R (Salmonella enterica) (UniProt P03013); test: native gel or EMSA
[23] = target: Hin M109W (Salmonella enterica) (UniProt P03013); test: native gel or EMSA
[24] = target: Hin F106T (Salmonella enterica) (UniProt P03013); test: native gel or EMSA
[25] = target: Hin-Q134C (wt) (Salmonella enterica) (UniProt P03013); test: cross-linking
[26] = target: Hin M109F (Salmonella enterica) (UniProt P03013); test: native gel or EMSA
[27] = target: Hin F106A (Salmonella enterica) (UniProt P03013); test: native gel or EMSA
[28] = target: Hin F106V (Salmonella enterica) (UniProt P03013); test: native gel or EMSA
[29] = target: Hin F106I (Salmonella enterica) (UniProt P03013); test: native gel or EMSA
[30] = target: Hin F106H (Salmonella enterica) (UniProt P03013); test: native gel or EMSA
[31] = target: Hin F105M (Salmonella enterica) (UniProt P03013); test: native gel or EMSA
[32] = target: Hin F106D (Salmonella enterica) (UniProt P03013); test: native gel or EMSA
[33] = target: Hin F106L (Salmonella enterica) (UniProt P03013); test: native gel or EMSA
[34] = target: Hin M109Q (Salmonella enterica) (UniProt P03013); test: native gel or EMSA
[35] = target: Hin F105C (Salmonella enterica) (UniProt P03013); test: native gel or EMSA
[36] = target: Hin F106N (Salmonella enterica) (UniProt P03013); test: native gel or EMSA
[37] = target: Hin F105H (Salmonella enterica) (UniProt P03013); test: native gel or EMSA
[38] = target: Hin F106R (Salmonella enterica) (UniProt P03013); test: native gel or EMSA

For “Hin F105I (from UniProt P03013 1-190) (enzyme)”, the stoichiometry N [1] was 4.
Substance “Hin F106W (from UniProt P03013 1-190) (enzyme)” has a stoichiometry N [2] of 2.
With “Hin F105L (from UniProt P03013 1-190) (enzyme)” the stoichiometry N [3] was 4.
With “Hin M109K (from UniProt P03013 1-190) (enzyme)” the stoichiometry N [4] was 4.
Substance “Hin F106E (from UniProt P03013 1-190) (enzyme)” has a stoichiometry N [5] of 2.
With “Hin F105Q (from UniProt P03013 1-190) (enzyme)” the stoichiometry N [6] was 4.
“Hin M109H (from UniProt P03013 1-190) (enzyme)” was tested, and the stoichiometry N [7] was 2 and the stoichiometry N [8] was 4.
Substance “Hin F106G (from UniProt P03013 1-190) (enzyme)” has a stoichiometry N [9] of 2.
In the case of “Hin F106K (from UniProt P03013 1-190) (enzyme)”, the stoichiometry N [10] is reported as 2.
Substance “Hin M109N (from UniProt P03013 1-190) (enzyme)” has a stoichiometry N [11] of 2.
“Hin F105V (from UniProt P03013 1-190) (enzyme)” was tested, and the stoichiometry N [12] was 4.
“Hin F106S (from UniProt P03013 1-190) (enzyme)” was tested, and the stoichiometry N [13] was 2.
“Hin F106C (from UniProt P03013 1-190) (enzyme)” gave a stoichiometry N [14] of 2.
“Hin F106Q (from UniProt P03013 1-190) (enzyme)” showed a stoichiometry N [15] of 2.
For “Hin M109Y (from UniProt P03013 1-190) (enzyme)”, the stoichiometry N [16] was 4.
“Hin F106Y (from UniProt P03013 1-190) (enzyme)” was tested, and the Fis-activated in vitro DNA inversion rate, relative to wild type (% of the wild-type rate) [17] was 10 and the stoichiometry N [18] was 2.
With “Hin F105W (from UniProt P03013 1-190) (enzyme)” the stoichiometry N [19] was 4.
For “Hin F106P (from UniProt P03013 1-190) (enzyme)”, the stoichiometry N [20] was 2.
For “Hin F106M (from UniProt P03013 1-190) (enzyme)”, the stoichiometry N [21] was 2.
“Hin M109R (from UniProt P03013 1-190) (enzyme)” showed a stoichiometry N [22] of 4.
“Hin M109W (from UniProt P03013 1-190) (enzyme)” showed a stoichiometry N [23] of 4.
Work on “Hin F106T (from UniProt P03013 1-190) (enzyme)” yielded a stoichiometry N [24] of 2.
“Hin-Q134C (wt) (from UniProt P03013 1-190) (enzyme)” showed a percent crosslinked products [25] of 65%.
For “Hin M109F (from UniProt P03013 1-190) (enzyme)”, the stoichiometry N [26] was 2.
In the case of “Hin F106A (from UniProt P03013 1-190) (enzyme)”, the stoichiometry N [27] is reported as 2.
With “Hin F106V (from UniProt P03013 1-190) (enzyme)” the stoichiometry N [28] was 2.
Substance “Hin F106I (from UniProt P03013 1-190) (enzyme)” has a stoichiometry N [29] of 2.
For “Hin F106H (from UniProt P03013 1-190) (enzyme)”, the stoichiometry N [30] was 2.
For “Hin F105M (from UniProt P03013 1-190) (enzyme)”, the stoichiometry N [31] was 4.
In the case of “Hin F106D (from UniProt P03013 1-190) (enzyme)”, the stoichiometry N [32] is reported as 2.
For “Hin F106L (from UniProt P03013 1-190) (enzyme)”, the stoichiometry N [33] was 2.
“Hin M109Q (from UniProt P03013 1-190) (enzyme)” showed a stoichiometry N [34] of 4.
Work on “Hin F105C (from UniProt P03013 1-190) (enzyme)” yielded a stoichiometry N [35] of 4.
For “Hin F106N (from UniProt P03013 1-190) (enzyme)”, the stoichiometry N [36] was 2.
Work on “Hin F105H (from UniProt P03013 1-190) (enzyme)” yielded a stoichiometry N [37] of 4.
For “Hin F106R (from UniProt P03013 1-190) (enzyme)”, the stoichiometry N [38] was 2.
